Experimental data from patent publication US20250059285A1 (ARGENX, published 2025).
Where a chain is given by its changes, count along the chain named.

Experiments:
human Gal10-His [1] = target: T1, human Gal10-His (human, UniProt Q05315 2-142, limits assumed); assay: SPR Biacore 3000, Fab periplasmic extract on Gal10-His-coated CM5
T1 construct: also called hGal10-His; human Gal10-His tagged; not shown: His tag
T1 sequence: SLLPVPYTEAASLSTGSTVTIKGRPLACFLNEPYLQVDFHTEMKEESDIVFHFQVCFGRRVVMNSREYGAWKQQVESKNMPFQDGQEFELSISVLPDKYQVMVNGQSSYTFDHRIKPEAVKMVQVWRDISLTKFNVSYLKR
Method: The binding properties of the Fabs (periplasmic extract) to human Gal10-His were analyzed by SPR with a Biacore 3000 instrument. For this purpose, the diluted periplasmic extract was applied on a CM5 chip coated with human Gal10-His. As a positive control, a 20 nM injection of the purified g7B07 clone in the human Fab backbone was included at the beginning and end of the run.
The binding capacity of the Fab periplasmic extract was analyzed by SPR technology using a Biacore 3000. Briefly, diluted periplasmic extracts were injected on CM5 chip coated with 2500 RU of Gal10-His. The amplitude of the binding (Rmax), the dissociation (off-rate) of each clone, as well as the off-rate fold change compared to the controls (g7B07 and g7B07_N53A) are indicated. Clones g20H09 and g23H09 had similar or better off rate compared to the control g7B07 (Table 10). The randomized part of the CDR2 sequence is underlined (Table 10).

human Gal10-His [2] = target: T1, human Gal10-His; assay: SPR Biacore 3000, purified hFab on captured Gal10-His
Method: (§1) The binding properties of the selected Fab clones to human Gal10 were analyzed via a capture method established on a Biacore 3000 instrument. Two concentrations of the selected Fab clones were tested on human Gal10-His immobilized on a CM5 chip coated with a monoclonal anti-His. As controls, the clone g7B07 and g7B07_N53A were injected at the beginning and the end of the run. Briefly, a CM5 chip was coated with a monoclonal anti-His antibody (4000 RU), then a fixed concentration of the human Gal10-His (25 μg/mL) was captured on the anti-His chip before receiving two concentrations of the clones in the human Fab backbone.

human Gal10-His [3] = target: T1, human Gal10-His; assay: SPR slope against calibrators on captured Gal10-His; T0 sample
Method: (§2) The binding properties of the seven selected clones following two weeks of temperature stress was analysed using an optimized capture method on a Biacore 3000 instrument. The binding properties of the stressed samples were determined, compared to the calibration point, and expressed as a percentage of Relative Activity (% RA).
(§3) Briefly, a capture method was set-up on a Biacore 3000 instrument. For this purpose, a CM5 chip was coated with a monoclonal anti-His antibody (4000 RU), then a fixed concentration of the human Gal10-His (25 μg/mL) was captured on the anti-His chip before receiving duplicate injections of the calibrators, QC samples and temperature stressed samples of each clone. The slope of each injected sample was then calculated using the BIA evaluation software. Concentrations of the QC samples and temperature stressed samples were back-calculated by interpolating the obtained slopes of these samples to the calibrator curve. Obtained values were within +/−20% of the nominal concentration of the tested samples and are expressed as average relative accuracy (avg % RA) (Table 13).

human Gal10-His [4] = target: T1, human Gal10-His; assay: SPR Biacore 3000, hFab on human Gal10-His captured by anti-His CM5
Method: (§4) The binding properties of the selected clones to human and cynomolgus Gal10 was analyzed via a capture method established on a Biacore 3000 instrument.
(§5) For this purpose, two approaches were used. In the first, two concentrations of the selected clones were applied on cynomolgus (WGS isoform) Gal10-His capture on a CM5 chip coated with a monoclonal anti-His antibody. The second approach involved a serial dilution that was applied on human or cynomolgus (WGS isoform) Gal10-His in the same set-up.

human Gal10-His [5] = target: T1, human Gal10-His; assay: SPR slope against calibrators on captured Gal10-His; sample 2 weeks at 37 C
Method: as §2, §3

[6] = target: T2, cynomolgus Gal10-His (WGS isoform) (cynomolgus); assay: SPR Biacore 3000, hFab on cynomolgus Gal10-His (WGS) captured by anti-His CM5
T2 construct: also called cynomolgus antigen
Method: as §4, §5

human Gal10-His [7] = target: T1, human Gal10-His; assay: SPR Biacore 3000, purified hFab (2 conc.) on Gal10-His captured by anti-His CM5
Method: as §1

human Gal10-His [8] = target: T1, human Gal10-His; assay: SPR Biacore 3000, hFab on captured human Gal10-His; column head prints (M), the text gives nM
Method: as §4, §5

human Gal10-His [9] = target: T1, human Gal10-His; assay: competition ELISA on coated Gal10-His; hFab 20 ug/mL, competitor g7B07-hFab-Biot, streptavidin-HRP
Method: An epitope binning analysis of the humanized Fab clones was carried out in comparison with the humanized Fab of g7B07.
For this experiment, a sub-optimal concentration of the biotinylated clone g7B07-humanized Fab was added to the Gal10 coated plate and pre-incubated with the selected clones. The percentage competition with g7B07 was then determined (Table 17). Motavizumab (Mota) in a human Fab backbone was used as a negative control (0% competition). Clone g7B07 was used as the positive control for competition and was therefore set as the 100% competition value. The anti-human specific clone 1D11 (binding to Tyrosine 69 residue) was included in the tested panel as a negative control for competition with 7B07 for Gal10 binding because it was known that clone 1D11 binds to the opposite side of Gal10 (including Tyrosine 69).

[10] = target: T2, cynomolgus Gal10-His (WGS isoform); assay: SPR Biacore 3000, hFab on captured cynomolgus Gal10-His (WGS); column head prints (M), the text gives nM
Method: as §4, §5

[11] = target: T3, recombinant human Charcot-Leyden crystals (crystalline galectin-10) (human, UniProt Q05315 2-142, limits assumed); assay: cell-based or functional assay
T3 sequence: T1 sequence

human Gal10-His [12] = target: T1, human Gal10-His; assay: SPR, overview table of lead Fab candidates
human Gal10-His [13] = target: T1, human Gal10-His; assay: SPR against T0 reference; sample 4 weeks at 37 C
Method: (§6) The functional active concentration of the candidates was then assessed by SPR on a Biacore 3000 instrument (FIG. 4). All samples were evaluated with methods meeting the standard qualification criteria. Aliquots were tested at predefined test concentrations against titration curves from reference samples (T0, −80° C. storage) and in the presence of quality control (QC) samples covering a range of 70-130% relative activity (% RA) towards the reference material.
(§7) comparison/reference ⁽¹⁾ samples correspond to aliquots kept at +37° C. for 4 weeks ⁽²⁾ samples correspond to aliquots kept at +5° C. for 4 weeks prior to nebulization. In brief, samples were nebulized with an Aerogen Solo active vibrating mesh nebulizer that converted a drug solution into an inhalable aerosol. Three different devices for each time-point were used per clone and results are reported by the device (nebulizer) serial number. In case of device fouling, indicated by longer nebulization times […]

human Gal10-His [14] = target: T1, human Gal10-His; assay: SPR against T0 reference; sample 4 weeks at 5 C, then nebulized
Method: as §6, §7

B1: g20B05 (Fab, periplasmic extract) (Fab, V domains shown)
VH: EVQLLESGGGLVQPGGSLRLSCAASGFTFRSYDMSWVRQAPGKGLEWVSAIKPVGITYYADSVKGRFTISRDNSKNTLYLQMNSLRAEDTAVYYCATTHGIGTLGFGSWGQGTLVTVSS
VL: SYELTQPLSVSVALGQTARITCDGNNIGSKSAQWYQQKPGQAPVLVIYADEYRPEGIPERFSGSNSGNTATLTISRAQAGDEADYYCQVWDGSAAVFGGGTQLTVL
notes: X3 library; VH assembled by inference
- Fold off-rate compared to g7B07 (human Gal10-His [1]): 3.3 fold
- koff (human Gal10-His [1]): 0.023 s⁻¹

B2: g21F11 (Fab, periplasmic extract) (Fab, V domains shown)
VH: EVQLLESGGGLVQPGGSLRLSCAASGFTFRSYDMSWVRQAPGKGLEWVSAIHTPMTYYADSVKGRFTISRDNSKNTLYLQMNSLRAEDTAVYYCATTHGIGTLGFGSWGQGTLVTVSS
VL: B1 VL
notes: X4 library; VH assembled by inference
- Fold off-rate compared to g7B07 (human Gal10-His [1]): 5.1 fold
- koff (human Gal10-His [1]): 0.035 s⁻¹

B3: g24F02 (human Fab) (Fab, V domains shown)
VH: EVQLLESGGGLVQPGGSLRLSCAASGFTFSSYAMSWVRQAPGKGLEWVSAINNGGGSTSYADSVKGRFTISRDNSKNTLYLQMNSLRAEDTAVYYCAKGLRVGVLGFDYWGQGTLVTVSS
VL: B1 VL
notes: Human Fab backbone (human CH1, human lambda CL); also called germlined 24F02
- fold better affinity than g7B07 (human Gal10-His [2]): 4.7 fold
- % Relative Activity (RA) on Biacore (human Gal10-His [3]): 101%
- Amplitude R0 (human Gal10-His [4]): 644 RU
- koff (human Gal10-His [4]): 0.0016 s⁻¹
- kon (human Gal10-His [4]): 1.1e+06 M⁻¹ s⁻¹
- % Relative Activity (RA) on Biacore (human Gal10-His [5]): 175%
- Amplitude R0 [6]: 566 RU
- koff [6]: 0.0078 s⁻¹
- kon [6]: 1.4e+06 M⁻¹ s⁻¹
- Kd (human Gal10-His [7]): 2 nM
- kd-fold drop vs g7B07 (human Gal10-His [7]): 2.8 fold
- koff (human Gal10-His [7]): 0.0016 s⁻¹
- kon (human Gal10-His [7]): 830000 M⁻¹ s⁻¹
- Kd (human Gal10-His [8]): 1.49 nM
- % Competition against g7B07-Biot (human Gal10-His [9]): 96.5%
- Mean OD value (human Gal10-His [9]): 0.26 OD
- Kd [10]: 5.4 nM

B4: g21C06 (Fab, periplasmic extract) (Fab, V domains shown)
VH: B2 VH with H52K, T53R, M55W
VL: B1 VL
notes: as for B2
- Fold off-rate compared to g7B07 (human Gal10-His [1]): 5.2 fold
- koff (human Gal10-His [1]): 0.036 s⁻¹

B5: g22C03 (Fab, periplasmic extract) (Fab, V domains shown)
VH: B1 VH with P53L, V54G, G55T, I56F
VL: B1 VL
notes: X5 library; VH assembled by inference
- Fold off-rate compared to g7B07 (human Gal10-His [1]): 2.9 fold
- koff (human Gal10-His [1]): 0.02 s⁻¹

B6: g7B07_N53A (human Fab) (Fab, V domains shown)
VH: EVQLLESGGGLVQPGGSLRLSCAASGFTFRSYDMSWVRQAPGKGLEWVSAIKAGGGITYYADSVKGRFTISRDNSKNTLYLQMNSLRAEDTAVYYCATTHGIGTLGFGSWGQGTLVTVSS
VL: B1 VL
notes: VH assembled by inference as for g7B07; Human Fab backbone; also called g7B07_N53A (mean)
- crystal dissolution % Relative Activity towards the reference T0 after 2 h, nebulized [11]: 53%
- crystal dissolution % Relative Activity towards the reference T0 after 2 h, stressed [11]: 82%
- recGal10 crystal dissolution EC50 (T2 h), Assay 1, nebulized [11]: 584 µg/mL
- recGal10 crystal dissolution EC50 (T2 h), Assay 1, stressed (4 W at 37 C) [11]: 379 µg/mL
- recGal10 crystal dissolution EC50 (T2 h), Assay 1, unstressed (T0) [11]: 309 µg/mL
- Kd (human Gal10-His [12]): 145 nM
- koff (human Gal10-His [12]): 0.079 s⁻¹
- % relative activity by SPR (human Gal10-His [13]): 95%
- % relative activity by SPR (human Gal10-His [14]): 94%
- Amplitude R0 (human Gal10-His [4]): 119 RU
- koff (human Gal10-His [4]): 0.079 s⁻¹
- kon (human Gal10-His [4]): 540000 M⁻¹ s⁻¹
- Amplitude R0 [6]: 30 RU
- koff [6]: 0.21 s⁻¹
- kon [6]: 510000 M⁻¹ s⁻¹
- Kd (human Gal10-His [7]): 144 nM
- kd-fold drop vs g7B07 (human Gal10-His [7]): 0.06 fold
- koff (human Gal10-His [7]): 0.078 s⁻¹
- kon (human Gal10-His [7]): 640000 M⁻¹ s⁻¹
- Kd (human Gal10-His [8]): 145 nM
- Kd [10]: 417 nM

B7: g23G11 (Fab, periplasmic extract) (Fab, V domains shown)
VH: B6 VH with K52Q, A53K, G54T, G55I, G56V, I57P
VL: B1 VL
notes: X6 library; VH assembled by inference
- Fold off-rate compared to g7B07 (human Gal10-His [1]): 2.6 fold
- koff (human Gal10-His [1]): 0.018 s⁻¹

B8: g23E05 (Fab, periplasmic extract) (Fab, V domains shown)
VH: B6 VH with K52R, A53T, G54F, G55E, G56H, I57H
VL: B1 VL
notes: as for B7
- Fold off-rate compared to g7B07 (human Gal10-His [1]): 1.8 fold
- koff (human Gal10-His [1]): 0.013 s⁻¹

B9: g23H11 (Fab, periplasmic extract) (Fab, V domains shown)
VH: B6 VH with K52S, A53K, G54M, G55P, G56H, I57L
VL: B1 VL
notes: as for B7
- Fold off-rate compared to g7B07 (human Gal10-His [1]): 3.6 fold
- koff (human Gal10-His [1]): 0.025 s⁻¹

B10: g20F04 (Fab, periplasmic extract) (Fab, V domains shown)
VH: B1 VH with P53H, V54Q, G55V
VL: B1 VL
notes: X3 library
- Fold off-rate compared to g7B07 (human Gal10-His [1]): 2.3 fold
- koff (human Gal10-His [1]): 0.016 s⁻¹

B11: g21B01 (Fab, periplasmic extract) (Fab, V domains shown)
VH: B2 VH with H52S, T53G, P54A, M55L
VL: B1 VL
notes: as for B2
- Fold off-rate compared to g7B07 (human Gal10-His [1]): 3.8 fold
- koff (human Gal10-His [1]): 0.026 s⁻¹
